Where a chain is given by its changes, count along the chain named. Numbers in names are those of the source.
B1: H237-MB750/MRAL-k0 (antibody, mouse IgG1, kappa)
heavy: QVQLQESGPGLVKPSETLSLTCAVSGHSISHDHAWSWVRQPPGEGLEWIGFISYSGITNYNPSLQGRVTISRDNSKNTLYLQMNSLRAEDTAVYYCARSLARTTAMDYWGEGTLVTVSSAKTTPPSVYPLAPGSAAQTNSMVTLGCLVKGYFPEPVTVTWNSGSLSSGVHTFPAVLQSDLYTLSSSVTVPSSTWPSETVTCNVAHPASSTKVDKKIVPRDCGCKPCICEPNEVELVFIFPPKPKDVLTITLTPKVTCVVVDISKDDPEVQFSWFVDDVEVHTAQTQPREEQFNSTFRSVSELPIMHQDWLNGKEFKCRVNSDAFPAPIEKTISKTKGRPKAPQVYTIPPPKEQMAKDKVSLTCMITDFFPEDITVEWQWNGQPAENYKNTQPIMDTDGSYFVYSKLNVQKSNWEAGNTFTCSVLHEGLHNHHTEKSLSHSPGK
light: not shown
notes: copies: 2 + 2
B2: H237-MB476/MRAL-k0 (antibody, mouse IgG1, kappa)
heavy: B1 heavy with E229Q, L235E, D322A
light: not shown
notes: copies: 2 + 2
B3: H237-MB515/MRAL-k0 (antibody, mouse IgG1, kappa)
heavy: B1 heavy with L235M, D322A
light: not shown
notes: copies: 2 + 2
B4: H237-MB527/MRAL-k0 (antibody, mouse IgG1, kappa)
heavy: B1 heavy with E229Q, L235E, S294L, N320D, D322A
light: not shown
notes: copies: 2 + 2
B5: H237-MB529/MRAL-k0 (antibody, mouse IgG1, kappa)
heavy: B1 heavy with E229Q, L235E, S294L, D322A, K330R
light: not shown
notes: copies: 2 + 2
B6: H237-MB530/MRAL-k0 (antibody, mouse IgG1, kappa)
heavy: B1 heavy with E229Q, L235E, N320D
light: not shown
notes: copies: 2 + 2
B7: H237-MB531/MRAL-k0 (antibody, mouse IgG1, kappa)
heavy: B1 heavy with E229Q, L235E, N320D, D322A, K330R
light: not shown
notes: copies: 2 + 2
B8: H237-MB532/MRAL-k0 (antibody, mouse IgG1, kappa)
heavy: B1 heavy with E229Q, L235E, K330R
light: not shown
notes: copies: 2 + 2
B9: H237-MB533/MRAL-k0 (antibody, mouse IgG1, kappa)
heavy: B1 heavy with E229Q, L235E, S294L, N320D
light: not shown
notes: copies: 2 + 2
B10: H237-MB535/MRAL-k0 (antibody, mouse IgG1, kappa)
heavy: B1 heavy with E229Q, L235E, S294L, K330R
light: not shown
notes: copies: 2 + 2
B11: H237-MB536/MRAL-k0 (antibody, mouse IgG1, kappa)
heavy: B1 heavy with E229Q, L235E, N320D, K330R
light: not shown
notes: copies: 2 + 2
B12: H237-MB537/MRAL-k0 (antibody, mouse IgG1, kappa)
heavy: B1 heavy with E229Q, L235E, S294L, N320D, K330R
light: not shown
notes: copies: 2 + 2
B13: H237-MB538/MRAL-k0 (antibody, mouse IgG1, kappa)
heavy: B1 heavy with L235M, S294L, D322A
light: not shown
notes: copies: 2 + 2
B14: H237-MB539/MRAL-k0 (antibody, mouse IgG1, kappa)
heavy: B1 heavy with L235M, S294L, N320D, D322A
light: not shown
notes: copies: 2 + 2
B15: H237-MB540/MRAL-k0 (antibody, mouse IgG1, kappa)
heavy: B1 heavy with L235M, S294L
light: not shown
notes: copies: 2 + 2
B16: H237-MB542/MRAL-k0 (antibody, mouse IgG1, kappa)
heavy: B1 heavy with L235M, N320D
light: not shown
notes: copies: 2 + 2
B17: H237-MB543/MRAL-k0 (antibody, mouse IgG1, kappa)
heavy: B1 heavy with L235M, N320D, D322A, K330R
light: not shown
notes: copies: 2 + 2
B18: H237-MB544/MRAL-k0 (antibody, mouse IgG1, kappa)
heavy: B1 heavy with L235M, K330R
light: not shown
notes: copies: 2 + 2
B19: H237-MB545/MRAL-k0 (antibody, mouse IgG1, kappa)
heavy: B1 heavy with L235M, S294L, N320D
light: not shown
notes: copies: 2 + 2
B20: H237-MB547/MRAL-k0 (antibody, mouse IgG1, kappa)
heavy: B1 heavy with L235M, S294L, K330R
light: not shown
notes: copies: 2 + 2
B21: H237-MB548/MRAL-k0 (antibody, mouse IgG1, kappa)
heavy: B1 heavy with L235M, N320D, K330R
light: not shown
notes: copies: 2 + 2
B22: H237-MB549/MRAL-k0 (antibody, mouse IgG1, kappa)
heavy: B1 heavy with L235M, S294L, N320D, K330R
light: not shown
notes: copies: 2 + 2
B23: H237-MB630/MRAL-k0 (antibody, mouse IgG1, kappa)
heavy: B1 heavy with D322A
light: not shown
notes: copies: 2 + 2
B24: H237-MB710/MRAL-k0 (antibody)
heavy: B1 heavy with N231A, L235Q, D322A
light: not shown
notes: T0025 prints T230E/V231P/P232N/S238E/S239Q for MB710; EU numbering; copies: 2 + 2
B25: H237-MB748/MRAL-k0 (antibody, mouse IgG1, kappa)
heavy: B1 heavy with S263A, D322A
light: not shown
notes: copies: 2 + 2

Target: T1, mouse FcγRIII extracellular domain, C-terminal His tag (mouse, UniProt P08508 31-215)
T1 construct: also called mFcγRIII; mFcgRIII
T1 chain: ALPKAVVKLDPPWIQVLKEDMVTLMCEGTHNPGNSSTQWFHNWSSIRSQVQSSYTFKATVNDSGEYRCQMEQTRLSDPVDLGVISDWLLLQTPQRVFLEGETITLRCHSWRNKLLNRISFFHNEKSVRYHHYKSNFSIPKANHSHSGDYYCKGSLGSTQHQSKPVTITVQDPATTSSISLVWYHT
Assay: SPR (Biacore T200), antibody captured on Protein L, mFcγR analyte
Procedure: (§1) Each altered antibody was analyzed for its interaction with each Fcγ receptor prepared above using Biacore T100 (GE Healthcare Japan Corp.), Biacore T200 (GE Healthcare Japan Corp.), Biacore A100, or Biacore 4000. The running buffer used was HBS-EP+ (GE Healthcare Japan Corp.). The assay temperature was set to 25° C. The sensor chips used were chips prepared by immobilizing Protein L (ACTIGEN or BioVision) onto Series S Sensor Chip CM5 (GE Healthcare Japan Corp.) or Series S Sensor Chip CM4 (GE Healthcare Japan Corp.) by the amine coupling method.
(§2) In order to calculate the KD value of each altered antibody for FcγR, kinetic analysis was conducted according to the following method: first, the antibody of interest was captured onto any of these chips and allowed to interact with mFcγR diluted with a running buffer. For the obtained sensorgram, the assay results were globally fit into the 1:1 Langmuir binding model using Biacore Evaluation Software to calculate an association rate constant ka (L/mol/s) and a dissociation rate constant kd (1/s). From these values, the dissociation constant KD (mol/L) was calculated.

Kd [nM] | relative mFcγRIII-binding activity (mIgG1 = 1) | Binder
705 | 0.4 fold vs H237-mIgG1/MRAL-k0 | B1
107 | 2.6 fold vs H237-mIgG1/MRAL-k0 | B2
214 | 1.3 fold vs H237-mIgG1/MRAL-k0 | B3
51 | 5.5 fold vs H237-mIgG1/MRAL-k0 | B4
47.6 | 5.9 fold vs H237-mIgG1/MRAL-k0 | B5
35.1 | 8 fold vs H237-mIgG1/MRAL-k0 | B6
85 | 3.3 fold vs H237-mIgG1/MRAL-k0 | B7
45.4 | 6.2 fold vs H237-mIgG1/MRAL-k0 | B8
39 | 7.2 fold vs H237-mIgG1/MRAL-k0 | B9
33.2 | 8.5 fold vs H237-mIgG1/MRAL-k0 | B10
36.8 | 7.7 fold vs H237-mIgG1/MRAL-k0 | B11
31.7 | 8.9 fold vs H237-mIgG1/MRAL-k0 | B12
164 | 1.7 fold vs H237-mIgG1/MRAL-k0 | B13
147 | 1.9 fold vs H237-mIgG1/MRAL-k0 | B14
99.4 | 2.8 fold vs H237-mIgG1/MRAL-k0 | B15
83.3 | 3.4 fold vs H237-mIgG1/MRAL-k0 | B16
126 | 2.2 fold vs H237-mIgG1/MRAL-k0 | B17
87.2 | 3.2 fold vs H237-mIgG1/MRAL-k0 | B18
106 | 2.7 fold vs H237-mIgG1/MRAL-k0 | B19
62.3 | 4.5 fold vs H237-mIgG1/MRAL-k0 | B20
71.7 | 3.9 fold vs H237-mIgG1/MRAL-k0 | B21
52.1 | 5.4 fold vs H237-mIgG1/MRAL-k0 | B22
1120 | 0.3 fold vs H237-mIgG1/MRAL-k0 | B23
232 | 1.2 fold vs H237-mIgG1/MRAL-k0 | B24
2060 | 0.1 fold vs H237-mIgG1/MRAL-k0 | B25

Each binder was assayed against T2, mouse FcγRII extracellular domain, C-terminal His tag (mouse, UniProt P08101 30-210) in the same assay as above.
T2 construct: also called mFcγRII; mFcgRII
T2 sequence: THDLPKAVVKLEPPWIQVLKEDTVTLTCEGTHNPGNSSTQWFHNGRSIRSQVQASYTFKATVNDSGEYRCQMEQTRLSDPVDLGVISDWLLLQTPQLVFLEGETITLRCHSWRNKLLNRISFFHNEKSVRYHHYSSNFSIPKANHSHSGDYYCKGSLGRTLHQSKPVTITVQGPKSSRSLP
Procedure: as §1, §2

Kd [nM] | relative mFcγRII-binding activity (mIgG1 = 1) | Binder
7.13 | 29.4 fold vs H237-mIgG1/MRAL-k0 | B1
0.804 | 261 fold vs H237-mIgG1/MRAL-k0 | B2
1.53 | 137 fold vs H237-mIgG1/MRAL-k0 | B3
0.768 | 273 fold vs H237-mIgG1/MRAL-k0 | B4
0.745 | 282 fold vs H237-mIgG1/MRAL-k0 | B5
0.337 | 623 fold vs H237-mIgG1/MRAL-k0 | B6
0.918 | 229 fold vs H237-mIgG1/MRAL-k0 | B7
0.639 | 329 fold vs H237-mIgG1/MRAL-k0 | B8
0.534 | 394 fold vs H237-mIgG1/MRAL-k0 | B9
0.498 | 422 fold vs H237-mIgG1/MRAL-k0 | B10
0.53 | 396 fold vs H237-mIgG1/MRAL-k0 | B11
0.412 | 510 fold vs H237-mIgG1/MRAL-k0 | B12
2.44 | 86.2 fold vs H237-mIgG1/MRAL-k0 | B13
2 | 105 fold vs H237-mIgG1/MRAL-k0 | B14
1.41 | 149 fold vs H237-mIgG1/MRAL-k0 | B15
0.547 | 384 fold vs H237-mIgG1/MRAL-k0 | B16
1.08 | 195 fold vs H237-mIgG1/MRAL-k0 | B17
0.76 | 276 fold vs H237-mIgG1/MRAL-k0 | B18
1.29 | 163 fold vs H237-mIgG1/MRAL-k0 | B19
1.23 | 170 fold vs H237-mIgG1/MRAL-k0 | B20
0.589 | 357 fold vs H237-mIgG1/MRAL-k0 | B21
1 | 210 fold vs H237-mIgG1/MRAL-k0 | B22
14.7 | 14.3 fold vs H237-mIgG1/MRAL-k0 | B23
4.13 | 50.8 fold vs H237-mIgG1/MRAL-k0 | B24
17.9 | 11.7 fold vs H237-mIgG1/MRAL-k0 | B25

— US20150203577A1 (Chugai, published 2015)
